# Measurements: PMC10565793, “Biochemical and X-ray analyses of the players involved in the faRel2/aTfaRel2 toxin–antitoxin operon” (Acta Crystallographica. Section F, Structural Biology …, 2023)
# B1: 6×His-TEV-ATfaRel2 (antitoxin ATfaRel2 from Coprobacillus sp. D7) (natural protein)
# chain: AMCYIIAKRFKKSGCVALKAKRGKELADFATDLQKKLGYDIQIVAITRPTAYGEYEPYKFVNSFEEFSIEASRL
# notes: The tag is not reported as removed; also called His6-TEV-ATfaRel2; source: E. coli BL21 (DE3), purified (Ni-NTA, SEC)
# Target: T1, FaRel2^Y128F (catalytically impaired toxin FaRel2 from Coprobacillus sp. D7) (Coprobacillus sp. D7, Y128F (stands in the printed letters))
# T1 construct: The His6-SUMO tag was removed with UlpI, and complete removal was confirmed by anti-His Western blot; also called tagless FaRel2^Y128F; His6-SUMO-FaRel2^Y128F (before cleavage); source: E. coli BL21(DE3), purified (Ni-NTA, SEC, UlpI cleavage, TALON, SEC); not shown: His6, N-terminal, cleaved; SUMO, N-terminal, cleaved
# Assay: SEC; analytical SEC on a Superdex 75 Increase column in 25 mM HEPES, 300 mM NaCl, 1 mM TCEP, 2 mM MgCl2; proteins run alone, or FaRel2^Y128F and ATfaRel2 mixed in a 1:1.2 molar ratio; molecular weights estimated from elution volume
# Conditions: both partners purified
binder,measurement,value
B1,stoichiometry N,1 ATfaRel2 per FaRel2^Y128F (2:2 heterotetramer)
